{"source": "patent US20130171217A1", "about": "“ENZYMATIC PERACID GENERATION FOR USE IN SKIN CARE PRODUCTS” (E I DU PONT DE NEMOURS AND COMPANY, priority 2010, published 2013)", "molecules": {"B1": {"name": "C277S-HC1010: C277S variant of Thermotoga maritima perhydrolase fused via a flexible linker to hair-binding domain HC1010 (protein)", "chain": "MAFFDLPLEELKKYRPERYEEKDFDEFWEETLAESEKFPLDPVFERMESHLKTVEAYDVTFSGYRGQRIKGWLLVPKLEEEKLPCVVQYIGYNGGRGFPHDWLFWPSMGYICFVMDTRGQGSGWLKGDTPDYPEGPVDPQYPGFMTRGILDPRTYYYRRVFTDAVRAVEAAASFPQVDQERIVIAGGSQGGGIALAVSALSKKAKALLCDVPFLCHFRRAVQLVDTHPYAEITNFLKTHRDKEEIVFRTLSYFDGVNFAARAKIPALFSVGLMDNISPPSTVFAAYNYYAGPKEIRIYPYNNHEGGGSFQAVEQVKFLKKLFEKGGPGSGGAGSPGSAGGPGSAQSQLPDKHSGLHERAPQRYGSGTAEIQSSKNPNPHPQRSWTNGSGHNHMQERYTDPQHSPSVNGLGSGHDHKNQKETHQRHAASSHHHHHH"}, "B2": {"name": "SEQ ID NO: 341: C277S variant of Thermotoga maritima perhydrolase fused to hair binding domain HC263KtoR via a flexible linker (protein)", "chain": "MAFFDLPLEELKKYRPERYEEKDFDEFWEETLAESEKFPLDPVFERMESHLKTVEAYDVTFSGYRGQRIKGWLLVPKLEEEKLPCVVQYIGYNGGRGFPHDWLFWPSMGYICFVMDTRGQGSGWLKGDTPDYPEGPVDPQYPGFMTRGILDPRTYYYRRVFTDAVRAVEAAASFPQVDQERIVIAGGSQGGGIALAVSALSKKAKALLCDVPFLCHFRRAVQLVDTHPYAEITNFLKTHRDKEEIVFRTLSYFDGVNFAARAKIPALFSVGLMDNISPPSTVFAAYNYYAGPKEIRIYPYNNHEGGGSFQAVEQVKFLKKLFEKGGPGSGGAGSPGSAGGPGSPSAQSQLPDRHSGLHERAPQRYGPEPEPEPEPIPEPPREAPVVIERPRPRPRPRPRPPAHDHRNQRETHQRHAAGSGGGGSPHHHHHH"}, "B3": {"name": "CPAH-HC263: fusion peptide C277S-HC263 further comprising a D128G substitution (protein)", "chain": "MAFFDLPLEELKKYRPERYEEKDFDEFWEETLAESEKFPLDPVFERMESHLKTVEAYDVTFSGYRGQRIKGWLLVPKLEEEKLPCVVQYIGYNGGRGFPHDWLFWPSMGYICFVMDTRGQGSGWLKGGTPDYPEGPVDPQYPGFMTRGILDPRTYYYRRVFTDAVRAVEAAASFPQVDQERIVIAGGSQGGGIALAVSALSKKAKALLCDVPFLCHFRRAVQLVDTHPYAEITNFLKTHRDKEEIVFRTLSYFDGVNFAARAKIPALFSVGLMDNISPPSTVFAAYNYYAGPKEIRIYPYNNHEGGGSFQAVEQVKFLKKLFEKGGPGSGGAGSPGSAGGPGSPSAQSQLPDKHSGLHERAPQRYGPEPEPEPEPIPEPPKEAPVVIEKPKPKPKPKPKPPAHDHKNQKETHQRHAAGSGGGGSPHHHHHH"}, "B4": {"name": "SEQ ID NO: 314: untargeted S54V variant of the aryl esterase from Mycobacterium smegmatis (protein, listed as Mycobacterium smegmatis)", "chain": "MAKRILCFGDSLTWGWVPVEDGAPTERFAPDVRWTGVLAQQLGADFEVIEEGLVARTTNIDDPTDPRLNGASYLPSCLATHLPLDLVIIMLGTNDTKAYFRRTPLDIALGMSVLVTQVLTSAGGVGTTYPAPKVLVVSPPPLAPMPHPWFQLIFEGGEQKTTELARVYSALASFMKVPFFDAGSVISTDGVDGIHFTEANNRDLGVALAEQVRSLL"}}, "key": {"[1]": {"test": "Retention of perhydrolase on hair detected by hydrolase activity", "type": "binding", "protocol": "For hair binding experiments brown hair tresses (International Hair Importers and Products, Glensdale N.Y.) were used. The hair was washed with 2% SLES, rinsed extensively with deionized water and air dried.\nAround 20 mg of 1 cm brown hair fragments was added in a 1.8-mL microfuge tube. Hydrolase assay buffer (1.2 mL) as added to the hair followed by the addition of the perhydrolase enzymes to the solution. The enzymes were allowed to bind the hair for 30 min with gentle agitation (24 rpm) on an Adams Nutator (model 1105, Becton Dickinson, Franklin Lakes, N.J.). No enzyme controls, with hair and without hair, were included in the binding experiment to account for non-enzymatic hydrolysis of the pNPA hydrolase reagent. After the binding step, a 1.0-mL aliquot of the binding buffer was transferred to a new tube to quantitate the amount of unbound enzyme. Additional binding buffer was removed and the hair fragments were washed 4 times with 1 mL of 1% TWEEN®-20 in hydrolase buffer, followed by 2 washes with 1 mL each in hydrolase buffer. The hair fragments were then resuspended in 1 mL of hydrolase assay and the hydrolase activity that remained bound to the hair was measured. The C277S (“PAH”) variant of Thermotoga maritima perhydrolase (SEQ ID NO: 293) was used as a control for an un-targeted perhydrolase."}, "[2]": {"test": "Perhydrolase activity remaining bound to hair, ABTS assay", "type": "binding, human", "details": "50 μg/mL", "protocol": "Ten mg of human hair was submerged in 2 mL of a binding solution containing 50 μg/mL of the Thermotoga maritima perhydrolase targeted to hair via the hair binding peptide HC263 (C277S-HC263; SEQ ID NO: 288; also referred to herein as “HC1121”) in 50 mM pH 7.2 potassium phosphate buffer containing 5% of the test surfactant. The test surfactants were two nonionic surfactants: TWEEN®-20 (Sigma, St Louis, Mo.), and TRITON®-X 100 (Aldrich, St Louis, Mo.), and two ionic surfactants: CHEMBETAINE™ CAD (Cocamidopropyl betaine; Lubrizol, Wickliffe, Ohio) and RHODAPEX® ES-2K (sodium laurel ether sulfate; Rhodia Novecare, Cranbury, N.J.).\nHair was incubated in the binding solution at room temperature (˜22° C.) with gentle agitation for 30 minutes, at which time the solution was removed by aspiration and the hair rinsed with 1% TWEEN®-20 in 50 mM pH 7.2 potassium phosphate buffer. The hair was removed from the tube, blotted dry with paper towel, and transferred to a new set of tubes. The hair was rinsed once with 1% TWEEN®-20 in 50 mM pH 7.2 potassium phosphate buffer and then rinsed three times with 50 mM pH 7.2 potassium phosphate buffer. Perhydrolase activity remaining bound to the hair was determined by the ABTS assay.\nThe ABTS assay was performed as follows: hair samples treated as described above were transferred to new 2-mL microcentrifuge tubes (Eppendorf Protein LoBind; Eppendorf North America, Hauppauge, N.Y.) To each tube was added 480 μL of PAH buffer (50 mM potassium phosphate, pH 7.2), 14 μL of 39% hydrogen peroxide (Sigma 3410), and 6 μL triacetin (Sigma-Aldrich W200700). The perhydrolase reaction was allowed to proceed for 10 minutes at room temperature (˜22-25° C.). The reaction was stopped by diluting aliquots 10×, 100× and 1000× with 10 mM phosphoric acid. For detection 50 μL of 1 M acetic acid, 50 μL of 40 mg/mL potassium iodide, and 50 μL of 4 mM ABTS (2,2′-azino-bis(3-ethylbenzthiazoline-6-sulphonic acid; Sigma, St Louis, Mo.) were added to 50 μL of the above dilutions. Color was allowed to develop for 10 minutes and read in a spectrophotometer at 405 nm. Values from no-enzyme controls were subtracted to yield values attributable only to enzyme activity. A standard curve of OD 405 nm vs PAA concentration in ppm yielded a conversion factor of 8.75, such that an OD 405 nm of 1.0 corresponded to approximately 8.75 ppm PAA. This value was then multiplied by the appropriate dilution to arrive at the PAA concentration in the perhydrolase reaction.\nThe Thermotoga maritima perhydrolase targeted to hair via the hair binding peptide HC263 (C277S-HC263; SEQ ID NO: 288) was diluted to 50 μg/mL in a solution of 5% PEG-80 sorbitan laurate in 100 mM citrate-phosphate buffer adjusted to pH 4.9, pH 5.5, pH 6.0, or pH 7.0. Ten mg of human hair was added to 2 mL of the above formulations and incubated with gentle agitation for 5 minutes at room temperature to allow enzyme binding to hair. A no-enzyme control sample was included with each pH. After binding, the binding solution was removed by aspiration and the hair was washed with 2 mL of 1% TWEEN®-20 in 50 mM pH 7.2 potassium phosphate buffer. The hair was removed from the tube, blotted dry with paper towel, and transferred to a new set of tubes. The hair was rinsed once with 1% TWEEN®-20 in 50 mM pH 7.2 potassium phosphate buffer and then rinsed three time with 50 mM pH 7.2 potassium phosphate buffer. Perhydrolase activity remaining bound to the hair was determined by the ABTS assay. The results are given as ppm PAA produced at 10 minutes (after subtraction of the no-enzyme control values)\nThe Thermotoga maritima perhydrolase targeted to hair via the hair binding peptide HC263 (C277S-HC263; SEQ ID NO: 288) was diluted to 50 μg/mL in a solution of 5% PEG-80 sorbitan laurate in 100 mM citrate-phosphate buffer adjusted to pH 6.0. […]"}, "[3]": {"test": "Single fiber tensile strength and bleaching start after two-step enzymatic application", "details": "two-step with buffer rinse", "protocol": "Hair samples were cut into pieces 4-inches in length. The denier number (liner mass density) of each hair fiber was measured by Textechno Vibromat Instrument (Textechno Herbert Stein GmbH & Co. KG; Germany). The hair fibers were tested according to ASTM D 3822-01 (“Tensile Properties of Single Textile Fibers”; ASTM International, West Conshohocken, Pa., 2001), on an Instron testing system (Instron Model 1122 Tester; Instron, Mass.) at about 70° F. (approximately 21° C.) and 65% relative humidity. The treated area of the hair sample was placed in the middle of the gauge and both ends were gripped on the test heads. Both fiber ends were attached on a piece of tape, respectively, for easy handling and gripping on the test heads. The test used 2-inch (5.1 cm) gauge length, […], and 1.2 inch/min (3 cm/min) pulling rate. The force-strain curve of the fiber was recorded during the test. The tenacity at maximum (gf/den) was calculated by dividing maximum force (gf) by denier number (den). Note that (gf/den)/11.33=Newtons/tex (N/tex).\nIn a two-step application, the hair strands are first treated with perhydrolase solutions to allow the enzyme to bind hair. The hair strands are then dried or rinsed with buffer and dried. The rinse step is intended to remove excess unbound enzyme from the hair. The hair strands are soaked in triacetin and H2O2 solutions. The application is repeated for multiple times.\nOne experiment was carried out with C277S-HC263 and untargeted T. maritima variant C277S using the following protocol: • 1. Enzyme solutions comprising 0.5 mg/mL enzyme in 50 mM phosphate buffer (pH 8) were made with or without 10 wt % urea. • 2. Seven (7) hair strands were soaked in 0.2 mL of an enzyme solution for 10 min and then dried under N2 without prior rinsing. • 3. The hair strands were then soaked in 0.2 mL of a pH 8 solution containing 100-mM triacetin and 250-mM H2O2 for 15 min, dried, then rinsed with DI water and then dried again. • 4. Steps 2-3 were repeated up to 15 times.\nAnother experiment was carried out with C277S-HC263 (SEQ ID NO: 288), CPAH-HC263 (SEQ ID NO: 294), CPAH-HC1010 (SEQ ID NO: 295) and untargeted C277S using the following protocol: • 1. Enzyme solutions comprising 1.0 mg/mL enzyme in 50 mM phosphate buffer (pH 6) were prepared. For solutions containing two enzymes, the concentration of each enzyme was approximately 0.5 mg/mL. • 2. Seven (7) hair strands were soaked in 0.2 mL of an enzyme solution for 10 min, rinsed with 50 mM phosphate buffer (pH 6), and then dried under N2. • 3. The dried hair strands were then soaked into 0.2 mL of 50 mM phosphate buffer solution (pH 8) comprising 100 mM triacetin and 250 mM H2O2 for 15 min, dried, then rinsed with DI water and then dried again. • 4."}, "[4]": {"details": "pH 6.0, binding 1 min, at 10 minutes"}}, "data": [{"molecule": "B1", "values": [{"measurement": "Activity in the first TWEEN®-20 wash", "setting": "[1]; hydrolase activity, 1% TWEEN®-20", "result": 20, "unit": "%"}, {"measurement": "Activity retained on hair after 4 TWEEN® 20 washes", "setting": "[1]; hydrolase activity, 4 washes 1% TWEEN®-20 and 2 buffer washes", "result": 41, "unit": "%"}, {"measurement": "Activity unbound", "setting": "[1]; hydrolase activity, ~20 mg hair, binding 30 min", "result": 20, "unit": "%"}, {"measurement": "100% activity (hydrolase activity added to the tube)", "setting": "[1]; tube containing ~20 mg of hair, not subjected to washes", "result": 125, "unit": "µmol/min"}]}, {"molecule": "B2", "values": [{"measurement": "ppm PAA", "setting": "[2]; 5% PEG-80 sorbitan laurate pH 6.0, binding 10 min, PAA at 10 minutes", "result": 958, "unit": "ppm"}]}, {"molecule": "B3", "values": [{"measurement": "Bleaching Start", "setting": "[3]; 1.0 mg/mL enzyme pH 6", "result": 9, "unit": "th"}, {"measurement": "Tenacity @ max", "setting": "[3]; 1.0 mg/mL enzyme pH 6, 100 mM triacetin, 250 mM H2O2, up to 13 repeats", "result": 0.6, "unit": "gf/den"}]}, {"molecule": "B4", "values": [{"measurement": "OD 405nm", "setting": "[2]; [4]", "result": 0.003}, {"measurement": "Peracetic acid", "setting": "[2]; [4]", "result": 2.60, "unit": "ppm"}]}]}
